Measurements taken from IntAct's records for PubMed 20511297.

B1: Fructokinase-like 1, chloroplastic (Arabidopsis thaliana (Mouse-ear cress)), Q9M394 (parent)
chain: MASLLIFPHLHHFDSSLDRREVLVVRHSQASRRFLTPKASINGSGITNGAAAETTSKPSRKGRKKKQTSTVIEKDNTETDPELNPELADYDDGIEFPYDDPPLVCCFGAVQKEFVPVVRVHDNPMHPDMYSQWKMLQWDPPEFGRAPGGPPSNVAISHVRLGGRAAFMGKVGEDDFGDELVLMMNQERVQTRAVKFDENSKTACTRVKIKFKDGKMMAETVKEPPEDSLFASELNLAVLKEARIFHFNSEVLTSPTMQSTLFTAIQWSKKFGGLIFFDLNLPLPLWRSRNETRKLIKKAWNEANIIEVSQQELEFLLDEDYYERRRNYTPQYFAEDFDQTKNRRDYYHYTPEEIKSLWHDKLKLLVVTDGTLRLHYYTPTFDGVVIGTEDVLITPFTCDRTGSGDAVVAGIMRKLTTCPEMFEDQDVMERQLRFAVAAGIIAQWTIGAVRGFPTESATQNLKEQVYVPSMW
partner: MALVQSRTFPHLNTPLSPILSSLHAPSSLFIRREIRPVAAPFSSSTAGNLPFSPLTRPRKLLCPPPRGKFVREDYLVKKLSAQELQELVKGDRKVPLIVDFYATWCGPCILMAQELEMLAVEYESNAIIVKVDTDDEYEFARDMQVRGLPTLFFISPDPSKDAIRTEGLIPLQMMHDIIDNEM
B2: Thioredoxin-like protein CITRX, chloroplastic (Arabidopsis thaliana (Mouse-ear cress)), Q9M7X9 (parent)
chain: B1 partner
partner: B1 chain
B3: Fructokinase-like 2, chloroplastic (Arabidopsis thaliana (Mouse-ear cress)), F4I0K2 (parent)
chain: MASLSFTQFLSFPRCNADVPCLLQSHGFVKFRGERWNGKQSFSMAAGRRKLSESAPLEEEGNDGNGAVVGKKPSKSVKRTTKKKVVVKDEPLEEISEFLVDNDDVLDKESIVSALKPKKTRTRKKAAAASSDVEEVKTEKKVRRKRTVKKDKDVEDDLATIMDAEVSDVEEALAVESTDTESEEEEIDLSKHEGEDISHTYGWPPLVCCFGSAQHAFVPSGRPANRLLDYELHERMRDAKWAPEKYIRAPGGCAGGVAIALASLGGKVAFMGKLGADDYGQAMLYYLNVCKVQTRSVKIDGKRVTACSTMKISKRGRLKSTCIKPCAEDSLSKSEINVDVLKEAKMFYFSTHSLLDKKMMSTTIQAIKISKQLGNVIFYDLNLPLPLWHSSEETKSFIQEVWNLADVIEITKQELEFLCGIEPTEEFDTENNDISKFVHYPPETVEQLWHENLKVLFVTNGTSKIHYYTKEHNGAVSGMEDVPITPFTRDMSASGDGIVAGLIRMLTVQPDLMNNKGYLERTARYAIECGIIDQWLLAQTRGYPPKDDMEEEEDDEEEDEVESDPNGIRSITEKEYRTSKPYDEPDGPYVMKPVEEREYKKLELVGSMFEDGSL
partner: B1 partner
B4: Thioredoxin-like protein CITRX, chloroplastic (Arabidopsis thaliana (Mouse-ear cress)), Q9M7X9 (parent)
chain: B1 partner
partner: B3 chain

Variants of: B1
Conditions: with citrx_arath CITRX, Q9M7X9

Variant	effect of a mutation on the interaction
MASLLIFPHLHHFDSSLDRREVLVVRHSQASRRFLTPKASINGSGITNGAAAETTSKPSRKGRKKKQTSTVIEKDNTETDPELNPELADYDDGIEFPYDDPPLVASFGAVQKEFVPVVRVHDNPMHPDMYSQWKMLQWDPPEFGRAPGGPPSNVAISHVRLGGRAAFMGKVGEDDFGDELVLMMNQERVQTRAVKFDENSKTACTRVKIKFKDGKMMAETVKEPPEDSLFASELNLAVLKEARIFHFNSEVLTSPTMQSTLFTAIQWSKKFGGLIFFDLNLPLPLWRSRNETRKLIKKAWNEANIIEVSQQELEFLLDEDYYERRRNYTPQYFAEDFDQTKNRRDYYHYTPEEIKSLWHDKLKLLVVTDGTLRLHYYTPTFDGVVIGTEDVLITPFTCDRTGSGDAVVAGIMRKLTTCPEMFEDQDVMERQLRFAVAAGIIAQWTIGAVRGFPTESATQNLKEQVYVPSMW [C105A;C106S]	disrupting interaction
MASLLIFPHLHHFDSSLDRREVLVVRHSQASRRFLTPKASINGSGITNGAAAETTSKPSRKGRKKKQTSTVIEKDNTETDPELNPELADYDDGIEFPYDDPPLVCAFGAVQKEFVPVVRVHDNPMHPDMYSQWKMLQWDPPEFGRAPGGPPSNVAISHVRLGGRAAFMGKVGEDDFGDELVLMMNQERVQTRAVKFDENSKTACTRVKIKFKDGKMMAETVKEPPEDSLFASELNLAVLKEARIFHFNSEVLTSPTMQSTLFTAIQWSKKFGGLIFFDLNLPLPLWRSRNETRKLIKKAWNEANIIEVSQQELEFLLDEDYYERRRNYTPQYFAEDFDQTKNRRDYYHYTPEEIKSLWHDKLKLLVVTDGTLRLHYYTPTFDGVVIGTEDVLITPFTCDRTGSGDAVVAGIMRKLTTCPEMFEDQDVMERQLRFAVAAGIIAQWTIGAVRGFPTESATQNLKEQVYVPSMW [C106A]	decreasing interaction

Variants of: B2
Conditions: with sckl1_arath FLN1, Q9M394

Variant	effect of a mutation on the interaction
MALVQSRTFPHLNTPLSPILSSLHAPSSLFIRREIRPVAAPFSSSTAGNLPFSPLTRPRKLLCPPPRGKFVREDYLVKKLSAQELQELVKGDRKVPLIVDFYATWSGPCILMAQELEMLAVEYESNAIIVKVDTDDEYEFARDMQVRGLPTLFFISPDPSKDAIRTEGLIPLQMMHDIIDNEM [C106S]	decreasing interaction

Variants of: B3
Conditions: with citrx_arath CITRX, Q9M7X9

Variant	effect of a mutation on the interaction
C208A	decreasing interaction
C208A;C209A	disrupting interaction
C209A	decreasing interaction

Variants of: B4
Conditions: with sckl2_arath FLN2, F4I0K2

Variant	effect of a mutation on the interaction
MALVQSRTFPHLNTPLSPILSSLHAPSSLFIRREIRPVAAPFSSSTAGNLPFSPLTRPRKLLCPPPRGKFVREDYLVKKLSAQELQELVKGDRKVPLIVDFYATWSGPCILMAQELEMLAVEYESNAIIVKVDTDDEYEFARDMQVRGLPTLFFISPDPSKDAIRTEGLIPLQMMHDIIDNEM [C106S]	decreasing interaction
